In article doi:10.1101/2024.06.02.596995:

Tests used:
[1] = target: Armitage KEE-Flag (D. melanogaster) (UniProt Q6J5K9); test: co-IP
[2] = target: Armitage ΔN34-Flag (D. melanogaster) (UniProt Q6J5K9); test: co-IP

A binding efficiency relative to WT Armi [1] of 34% and a binding efficiency relative to WT Armi [2] of 20% were found for “Daedalus (Daed), endogenous in OSCs (natural protein)” in this work.
